The source of these data is publication PMC2621353, “Residues Clustered in the Light-Sensing Knot of Phytochrome B are Necessary for Conformer-Specific Binding to Signaling Partner PIF3” (PLoS Genetics, 2009).

To fix the notation:
B1: full-length phytochrome B (phyB), wild type, in vitro translated [modified: 35S-methionine labelled; 35S-methionine labelled] [Arabidopsis thaliana] / GAD-PIF3, in vitro translated [modified: 35S-methionine labelled … (parent)
chain 1: MVSGVGGSGGGRGGGRGGEEEPSSSHTPNNRRGGEQAQSSGTKSLRPRSNTESMSKAIQQYTVDARLHAVFEQSGESGKSFDYSQSLKTTTYGSSVPEQQITAYLSRIQRGGYIQPFGCMIAVDESSFRIIGYSENAREMLGIMPQSVPTLEKPEILAMGTDVRSLFTSSSSILLERAFVAREITLLNPVWIHSKNTGKPFYAILHRIDVGVVIDLEPARTEDPALSIAGAVQSQKLAVRAISQLQALPGGDIKLLCDTVVESVRDLTGYDRVMVYKFHEDEHGEVVAESKRDDLEPYIGLHYPATDIPQASRFLFKQNRVRMIVDCNATPVLVVQDDRLTQSMCLVGSTLRAPHGCHSQYMANMGSIASLAMAVIINGNEDDGSNVASGRSSMRLWGLVVCHHTSSRCIPFPLRYACEFLMQAFGLQLNMELQLALQMSEKRVLRTQTLLCDMLLRDSPAGIVTQSPSIMDLVKCDGAAFLYHGKYYPLGVAPSEVQIKDVVEWLLANHADSTGLSTDSLGDAGYPGAAALGDAVCGMAVAYITKRDFLFWFRSHTAKEIKWGGAKHHPEDKDDGQRMHPRSSFQAFLEVVKSRSQPWETAEMDAIHSLQLILRDSFKESEAAMNSKVVDGVVQPCRDMAGEQGIDELGAVAREMVRLIETATVPIFAVDAGGCINGWNAKIAELTGLSVEEAMGKSLVSDLIYKENEATVNKLLSRALRGDEEKNVEVKLKTFSPELQGKAVFVVVNACSSKDYLNNIVGVCFVGQDVTSQKIVMDKFINIQGDYKAIVHSPNPLIPPIFAADENTCCLEWNMAMEKLTGWSRSEVIGKMIVGEVFGSCCMLKGPDALTKFMIVLHNAIGGQDTDKFPFPFFDRNGKFVQALLTANKRVSLEGKVIGAFCFLQIPSPELQQALAVQRRQDTECFTKAKELAYICQVIKNPLSGMRFANSLLEATDLNEDQKQLLETSVSCEKQISRIVGDMDLESIEDGSFVLKREEFFLGSVINAIVSQAMFLLRDRGLQLIRDIPEEIKSIEVFGDQIRIQQLLAEFLLSIIRYAPSQEWVEIHLSQLSKQMADGFAAIRTEFRMACPGEGLPPELVRDMFHSSRWTSPEGLGLSVCRKILKLMNGEVQYIRESERSYFLIILELPVPRKRPLSTASGSGDMMLMMPY
chain 2: MPLFELFRLTKAKLESAQDRNPSPPVDEVVELVWENGQISTQSQSSRSRNIPPPQANSSRAREIGNGSKTTMVDEIPMSVPSLMTGLSQDDDFVPWLNHHPSLDGYCSDFLRDVSSPVTVNEQESDMAVNQTAFPLFQRRKDGNESAPAASSSQYNGFQSHSLYGSDRARDLPSQQTNPDRFTQTQEPLITSNKPSLVNFSHFLRPATFAKTTNNNLHDTKEKSPQSPPNVFQTRVLGAKDSEDKVLNESVASATPKDNQKACLISEDSCRKDQESEKAVVCSSVGSGNSLDGPSESPSLSLKRKHSNIQDIDCHSEDVEEESGDGRKEAGPSRTGLGSKRSRSAEVHNLSERRRRDRINEKMRALQELIPNCNKVDKASMLDEAIEYLKSLQLQVQIMSMASGYYLPPAVMFPPGMGHYPAAAAAMAMGMGMPYAMGLPDLSRGGSSVNHGPQFQVSGMQQQPVAMGIPRVSGGGIFAGSSTIGNGSTRDLSGSKDQTTTNNNSNLKPIKRKQGSSDQFCGSS

In the assay the parent is B1. In words: in vitro co-immunoprecipitation. The following applies: with GAD-PIF3, in vitro translated [modified: 35S-methionine labelled, GAD-PIF3 as bait, phyB as prey, 35S-met in vitro translated proteins.
Where [1] appears, read: phyB in Pfr form, parent: 17, read off a plot.
Where [2] appears, read: phyB in Pr form, parent: 1, read off a plot.
The mark [3] stands for this setting: phyB in Pfr form, parent: 13, read off a plot.
The mark [4] stands for this setting: phyB in Pfr form, parent: 9.1, read off a plot.
Setting [5] is: phyB in Pfr form, parent: 3.8, read off a plot.

Turning to chain 1 I308T, the screen value (relative to wild-type phyB Pr = 1) under setting [1] amounted to 2.3 and the screen value (relative to wild-type phyB Pr = 1) under setting [2] was found to be 1.

Consider chain 1 V264E, for which the screen value (relative to wild-type phyB Pr = 1) was 1.9 under setting [3] and 2 under setting [2].

For the variant chain 1 P411L, the screen value (relative to wild-type phyB Pr = 1) runs as follows: under setting [4], 4.1; under setting [2], 1.

Consider chain 1 S367P, for which the screen value (relative to wild-type phyB Pr = 1) amounted to 4.8 under setting [1] and 2.4 under setting [2].

As for chain 1 R415W, the screen value (relative to wild-type phyB Pr = 1) stood at 0.58 under setting [5] and 0.45 under setting [2].

Turning to chain 1 C119Y, the screen value (relative to wild-type phyB Pr = 1) reads like this: under setting [5], 0.9; under setting [2], 0.45.

On to chain 1 V273L, for which the screen value (relative to wild-type phyB Pr = 1) runs as follows: under setting [1], 3.9; under setting [2], 2.

chain 1 S134G: the screen value (relative to wild-type phyB Pr = 1) reads like this: under setting [4], 3.1; under setting [2], 1.6.

chain 1 G348D: the screen value (relative to wild-type phyB Pr = 1) is, setting by setting: under setting [3], 2.6; under setting [2], 1.

chain 1 S343Y: the screen value (relative to wild-type phyB Pr = 1) runs as follows: under setting [3], 1.7; under setting [2], 1.4.

For the variant chain 1 L256C, the screen value (relative to wild-type phyB Pr = 1) is 2.8 under setting [3] and 1 under setting [2].

As for chain 1 C345R, the screen value (relative to wild-type phyB Pr = 1) under setting [1] came out at 5.1 and the screen value (relative to wild-type phyB Pr = 1) under setting [2] stood at 2.
